Positions count from the first letter of the chain named. Numbers in names are those of the source. Where two headings read alike, the source gives them in different places.
Assays:
[1] = target: T1, recombinant GPRC5D antigen (Human GPRC5D protein-Flag-His tag (51.8KD) ACRO Cat: GPD-H52D3) (human, UniProt Q9NZD1 1-345, limits assumed); assay: BLI (Octet R8), recombinant GPRC5D antigen
T1 construct: Bought protein; also called CPRG5D; not shown: Flag-His tag
From the text: The recombinant GPRC5D antigen (Human GPRC5D protein-Flag-His tag (51.8KD) ACRO Cat: GPD-H52D3) was immobilized on a chip and detected by Octet® R8 biomolecular interaction analysis system.

human GPRC5D on cells [2] = target: T2, human GPRC5D on cells (human, UniProt Q9NZD1 1-345); assay: flow cytometry, MM.1R cell binding
T2 construct: whole, on cells; Either overexpressed in HEK293, CHOS or HEK293T cells, or naturally expressed on human myeloma cell lines; also called hGPRC5D; HEK293-hGPRC5D
Description: (§1) After the cells were digested with TrypLE, the digested cells were centrifuged and resuspended in a DPBS solution containing 2% BSA (FACS buffer, 4° C.), added into a 96-well plate with a U-shaped bottom in an amount of 5× 10⁵ cells/100 μl/well, added with antibody diluted over concentration gradient, and incubated at 4° C. for 1 hr. After centrifugation, the supernatant was discarded. 100 μl of anti-human IgG Fc-APC secondary antibody was added to each well and incubated at 4° C. for 1 hr. Then the cells were washed once with a FACS buffer, and resuspended in 200 μl FACS buffer. The fluorescence signal was read on BD CantoII.

human GPRC5D on cells [3] = target: T2, human GPRC5D on cells; assay: flow cytometry, NCI-H929 cell binding
Description: as §1

human GPRC5D on cells [4] = target: T2, human GPRC5D on cells; assay: flow cytometry, RPMI-8226 cell binding
Description: as §1

human GPRC5D on cells [5] = target: T2, human GPRC5D on cells; assay: FACS on MM.1R cells (natural GPRC5D), anti-human IgG Fc-APC secondary; fit table under the curves
Description: as §1

human GPRC5D on cells [6] = target: T2, human GPRC5D on cells; assay: FACS on NCI-H929 cells (natural GPRC5D), anti-human IgG Fc-APC secondary; fit table under the curves
Description: as §1

human GPRC5D on cells [7] = target: T2, human GPRC5D on cells; assay: FACS on RPMI-8226 cells (natural GPRC5D), anti-human IgG Fc-APC secondary; fit table under the curves
Description: as §1

human GPRC5D on cells [8] = target: T2, human GPRC5D on cells; assay: FACS on CHOS cells expressing hGPRC5D (sheet title: CHOS-hGPRC5D sorted), anti-human IgG Fc-APC secondary; fit table under the curves
Description: (§2) After centrifugation, […] and CHOS-hGPRC5D cells expressing hGPRC5D were resuspended in a DPBS solution (FACS buffer, 4° C.) containing 2% BSA, added to a 96-well plate with a U-shaped bottom in an amount of 5×10⁵ cells/100 μl/well, added with antibody diluted over concentration gradient, and incubated at 4° C. for 1 hr. After centrifugation, the supernatant was discarded. 100 μl of anti-human IgG Fc-APC secondary antibody was added to each well and incubated at 4° C. for 1 hr. Then the cells were washed once with a FACS buffer, and resuspended in 200 μl FACS buffer. The fluorescence signal was read on BD CantoII.

human GPRC5D on cells [9] = target: T2, human GPRC5D on cells; assay: FACS on HEK293 cells expressing hGPRC5D (sheet title: 293T-hGPRC5D sorted), anti-human IgG Fc-APC secondary; fit table under the curves
Description: as §2

human GPRC5D on cells [10] = target: T2, human GPRC5D on cells; assay: FACS on CHOS cells expressing hGPRC5D (sheet title: CHOS-hGPRC5D sorted), anti-human IgG Fc-APC secondary; fit table under the curves, unit from the axis Log Conc.(ug/ml)
Description: as §2

human GPRC5D on cells [11] = target: T2, human GPRC5D on cells; assay: FACS on HEK293 cells expressing hGPRC5D (sheet title: 293T-hGPRC5D sorted), anti-human IgG Fc-APC secondary; fit table under the curves, unit from the axis Log Conc.(ug/ml)
Description: as §2

[12] = target: T3, recombinant CD3e antigen (Human CD3 epsilon Protein, His Tag, ACRO Cat: CDE-H5223) (human, UniProt P07766 23-126); assay: BLI (Octet R8), recombinant CD3e antigen
T3 construct: Bought protein; also called CD3 antigen; not shown: His tag
From the text: (§3) The recombinant CD3e antigen (Human CD3 epsilon Protein, His Tag, ACRO Cat: CDE-H5223) and recombinant GPRC5D antigen (Human GPRC5D protein-Flag-His tag (51.8KD) ACRO Cat: GPD-H52D3) were immobilized on a chip and detected by Octet® R8 biomolecular interaction analysis system.

[13] = target: T1, recombinant GPRC5D antigen (Human …); assay: BLI (Octet R8), recombinant GPRC5D antigen; remark: listed apart in the source
From the text: as §3

human GPRC5D on cells [14] = target: T2, human GPRC5D on cells; assay: cell-based binding assay on HEK293T-hGPRC5D
Description: (§4) HEK293T-hGPRC5D or HEK293T-cynoGPRC5D cells in logarithmic growth phase were inoculated into a 96-well culture plate, and the antibodies at different concentrations (200, 66.7, 22.22, 7.41, 2.47, 0.82, 0.27, 0.09, 0.03, and 0.01 nM) was added. 2 duplicate wells were set for each concentration and a negative control (PBS) well was also set. The cells were incubated at 25° C. for about 60 minutes and then developed and detected. The raw data of the test was the difference between the detection wavelength and the reference wavelength. A dose-response curve was fitted using statistical software, based on OD value and the logarithmic value of the concentration, from which the EC50 was obtained.

[15] = target: T4, cynomolgus monkey GPRC5D on HEK293T cells (cynomolgus monkey); assay: cell-based binding assay on HEK293T-cynoGPRC5D
T4 construct: whole, on cells; also called HEK293T-cynoGPRC5D; Cynomolgus GPRC5D
Description: as §4

T3 sequence (P07766 23-126 limits assumed): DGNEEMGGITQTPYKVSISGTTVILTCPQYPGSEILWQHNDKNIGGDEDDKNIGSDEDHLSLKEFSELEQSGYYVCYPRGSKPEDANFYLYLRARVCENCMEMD
T2 sequence (Q9NZD1 whole entry): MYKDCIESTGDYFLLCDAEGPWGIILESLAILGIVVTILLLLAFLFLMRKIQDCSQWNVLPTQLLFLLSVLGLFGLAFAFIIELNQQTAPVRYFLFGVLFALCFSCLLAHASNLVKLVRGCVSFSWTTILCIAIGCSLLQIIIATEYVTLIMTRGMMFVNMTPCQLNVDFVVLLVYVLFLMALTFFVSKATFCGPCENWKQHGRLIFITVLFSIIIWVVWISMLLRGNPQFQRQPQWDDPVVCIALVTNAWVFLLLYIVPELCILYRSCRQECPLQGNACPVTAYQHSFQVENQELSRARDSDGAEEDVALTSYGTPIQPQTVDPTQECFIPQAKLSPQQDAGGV
T1 sequence (Q9NZD1 whole entry): as above

B1: humanized antibody 22Mono5UQY (antibody, human IgG1, V domains shown)
VH: QVQLQESGPGLVKPSETLSLTCTASGYPFTNYWMHWVRQPPGKGLEWIGEINPSNGRTNYNEKFKSRATLSLDKSKNQASLNLDSVSAADTAIYYCARGFAYWGKGSTVTVSS
VL: AIQLTQSPSSLSASVGDRVTITCSASSSVSFMHWYQQKPGKAPKRWIYDTTKLASGVPSRFSGSGSGTDYTFTISSLQPEDIATYYCQQWNSHPLTFGPGTKVDIK
notes: also called 22MonoSUQY
[1]
  Kd: 5.67 nM
  koff: 0.000489 s⁻¹
  kon: 86200 M⁻¹ s⁻¹

B2: humanized antibody 22Mono5JO4 (antibody, human IgG1, V domains shown)
VH: QVQLVQSGAEVKKPGSSVKVSCRASGYPFTNYWMHWVRQAPGQGLEWIGEINPSNGRTNYNEKFKSRATLTLDKLTSTAYMELSSLTSEDTALYYCARGFAYWGQGTLVTVSS
VL: EIVLTQSPGTLSLSPGERATLSCSASSSVSFMHWYQQKPGQAPRRWIYDTTKLASGIPDRFSGSGSGTDYTLTISRLEPEDFAVYYCQQWNSHPLTFGQGTTVEIK
[1]
  Kd: 0.787 nM
  koff: 0.000119 s⁻¹
  kon: 151000 M⁻¹ s⁻¹

B3: humanized antibody 22Mono4DN4 (antibody, human IgG1, V domains shown)
VH: ELVQSGAEVKKPGSSVKVSCKASGYPFTNYWMHWVRQAPGQGLEWIGEINPSNGRTNYNEKFKSRATLTLDKSTSTAYMELSSLRSEDTAVYYCARGFAYWGQGTLVTVSS
VL: B2 VL with G9A, I57V, D59A, R76S, T102K
[1]
  Kd: 16.9 nM
  koff: 0.00114 s⁻¹
  kon: 67300 M⁻¹ s⁻¹

B4: humanized antibody 22Mono3L7F (antibody, human IgG1, V domains shown)
VH: EVTLKESGPVLVKPTETLTLTCTASGYPFTNYWMHWVRQPPGKALEWIGEINPSNGRTNYNEKFKSRATLSLDKSKSQAVLTMTNMDPVDTATYYCARGFAYWGQGTLVTVSS
VL: B2 VL with G9A, D59A, R76S, T102K, V103L
notes: also called 22monoO3L7
[1]
  Kd: 25.6 nM
  koff: 0.002 s⁻¹
  kon: 78000 M⁻¹ s⁻¹

B5: ch-72C7 chimeric recombinant antibody (antibody, V domains shown)
VH: QVQLQQPGAELVKPGTSVKLSCKASGYPFTNYWMHWVRQRPGQGLEWIGEINPSNGRTNYNEKFKSLATLTLDKSSSTAYMHLNSLTSEDSAVYYCARGFAYWGQGTLVTVSA
VL: QIVLSQFPAIMSASPGEKVTMTCSASSSVSFMHWYQQKSGTSPKRWIYDTTKLASGVPARFTGSGSGTSYSLTISSMEAEDAATYYCQQWNSHPLTFGPGTKLELK
notes: also called ch-72C7 antibody; antibody ch-72C7
Human GPRC5D on cells [2]
  EC50: 0.62 µg/mL
Human GPRC5D on cells [3]
  EC50: 0.485 µg/mL
Human GPRC5D on cells [4]
  EC50: 0.916 µg/mL
Human GPRC5D on cells [5]
  LogEC50: -0.207 log(ug/ml)
Human GPRC5D on cells [6]
  LogEC50: -0.314 log(ug/ml)
Human GPRC5D on cells [7]
  LogEC50: -0.0379 log(ug/ml)
Human GPRC5D on cells [8]
  LogEC50: 0.198 log(ug/ml)
Human GPRC5D on cells [9]
  LogEC50: -0.309 log(ug/ml)
Human GPRC5D on cells [10]
  EC50: 1.58 µg/mL
Human GPRC5D on cells [11]
  EC50: 0.49 µg/mL

B6: humanized CD3xGPRC5D bispecific antibody 22A8 (Structure D) (bispecific antibody)
heavy 1: QVQLVQSGAEVKKPGSSVKVSCRASGYPFTNYWMHWVRQAPGQGLEWIGEINPSNGRTNYNEKFKSRATLTLDKLTSTAYMELSSLTSEDTALYYCARGFAYWGQGTLVTVSSASTKGPSVFPLAPSSKSTSGGTAALGCLVKDYFPEPVTVSWNSGALTSGVHTFPAVLQSSGLYSLSSVVTVPSSSLGTQTYICNVNHKPSNTKVDKKVEPKSCDKTHTCPPCPAPPVAGPSVFLFPPKPKDTLMISRTPEVTCVVVDVSQEDPEVKFNWYVDGVEVHNAKTKPREEQFNSTYRVVSVLTVLHQDWLNGKEYKCKVSNKGLPSSIEKTISKAKGQPREPQVYTLPPSRDELTKNQVSLSCAVKGFYPSDIAVEWESNGQPENNYKTTPPVLDSDGSFFLVSKLTVDKSRWQQGNVFSCSVMHEALHNRFTQKSLSLSP
light: EIVLTQSPGTLSLSPGERATLSCSASSSVSFMHWYQQKPGQAPRRWIYDTTKLASGIPDRFSGSGSGTDYTLTISRLEPEDFAVYYCQQWNSHPLTFGQGTTVEIKRTVAAPSVFIFPPSDEQLKSGTASVVCLLNNFYPREAKVQWKVDNALQSGNSQESVTEQDSKDSTYSLSSTLTLSKADYEKHKVYACEVTHQGLSSPVTKSFNRGEC
heavy 2: EVQLVESGGGLVQPGGSLRLSCAASGFTFSTYAMNWVRQAPGKGLEWVGRIRSKYNNYATYYADSVKGRFTISRDDSKNSLYLQMNSLRAEDTAVYYCVRHGNFGTSYVSWFAYWGQGTLVTVSSASTKGPSVFPLAPSSKSTSGGTAKLGCLVKDYFPEPVTVSWNSGALTSGVHTFPACLQSSGLYSLSSVVTVPSSSLGTQTYICNVNHKPSNTKVDKKVEPKSSDKTHTCPPCPAPELLAGPDVFLFPPKPKDTLMISRTPEVTCVVVDVSHEDPEVKFNWYVDGVEVHNAKTKPREEQYNSTYRVVSVLTVLHQDWLNGKEYKCKVSNKALPLPEEKTISKAKGQPREPQVYTLPPSRDELTKNQVSLWCLVKGFYPSDIAVEWESNGQPENNYKTTPPVLDSDGSFFLYSKLTVDKSRWQQGNVFSCSVMHEALHNHYTQKSLSLSP
chain: QVQLVQSGAEVKKPGSSVKVSCRASGYPFTNYWMHWVRQAPGQGLEWIGEINPSNGRTNYNEKFKSRATLTLDKLTSTAYMELSSLTSEDTALYYCARGFAYWGQGTLVTVSSASTKGPSVFPLAPSSKSTSGGTAALGCLVKDYFPEPVTVSWNSGALTSGVHTFPAVLQSSGLYSLSSVVTVPSSSLGTQTYICNVNHKPSNTKVDKKVEPKSCDGGGGSGGGGSQAVVTQEPSLTVSPGGTVTLTCRSSTGAVTTSNYANWVQQKPGQAPRGLIGGTNKRAPWTPARFSGSLLGGKAALTLSGAQAEDEADYYCALWYSNLWVFGGGTKLTVLRTVAAPSVDIFPPSDEQLKSGTASVVCLLNNFYPREAKVQWKVDNALQSGNSCESVTEQDSKDSTYSLSSTLTLSKADYEKHKVYACEVTHQGLSSPVTKSFNRGES
notes: First polypeptide: VH1(GPRC5D, humanized)-CH1a-Fc; Second and fifth polypeptides are identical: VL(GPRC5D, humanized)-CLa; Third polypeptide: VH2(CD3)-CH1b-Fc; Fourth polypeptide: VH3(GPRC5D, humanized)-CH1a-linker-VL2(CD3)-CLb; Fc mutations are knob-into-hole (T366W; Y407V, T366S, L368A)
[12]
  Kd: 30 nM
  koff: 0.00381 s⁻¹
  kon: 127000 M⁻¹ s⁻¹
[13]
  Kd: 9.47 nM
  koff: 0.000596 s⁻¹
  kon: 62900 M⁻¹ s⁻¹
Human GPRC5D on cells [14]
  EC50: 3.86 nM
[15]
  EC50: 10.1 nM

From patent publication US20260217825A1 (CHIMAGEN BIOSCIENCES, published 2026)
